Measured values as given in patent publication US12692305.

What was measured:
[1] = target: PD-1 on in vitro activated primary human T cells (human) (UniProt Q15116); test: flow cytometry, detection antibody on Ki-67+ CD4+ activated T cells after 4 d with 10 nM RV1 precomplexed with IL-15
[2] = target: PD-1 on in vitro activated primary human T cells (human) (UniProt Q15116); test: flow cytometry, detection antibody on Ki-67+ CD8+ activated T cells after 4 d with 10 nM RV2 precomplexed with IL-15
[3] = target: PD-1 on in vitro activated primary human T cells (human) (UniProt Q15116); test: flow cytometry, detection antibody on Ki-67+ CD4+ activated T cells after 4 d with 1 nM IL-15 alone
[4] = target: PD-1 on in vitro activated primary human T cells (human) (UniProt Q15116); test: flow cytometry, detection antibody on Ki-67+ CD8+ activated T cells after 4 d with 10 nM IL-15Rα-Fc precomplexed with IL-15
[5] = target: PD-1 on in vitro activated primary human T cells (human) (UniProt Q15116); test: flow cytometry, detection antibody on Ki-67+ CD8+ activated T cells after 4 d with 10 nM IL-15 alone
[6] = target: PD-1 on in vitro activated primary human T cells (human) (UniProt Q15116); test: flow cytometry, detection antibody on Ki-67+ CD4+ activated T cells; average pooled over non-PD-1-binding test samples and concentrations
[7] = target: PD-1 on in vitro activated primary human T cells (human) (UniProt Q15116); test: flow cytometry, detection antibody on Ki-67+ CD8+ activated T cells after 4 d with 100 nM RV2 precomplexed with IL-15
[8] = target: PD-1 on in vitro activated primary human T cells (human) (UniProt Q15116); test: flow cytometry, residual staining by detection antibody on Ki-67+ CD4+ activated T cells in the presence of competitors RV29 and RV32 (IL-15 precomplexed); average pooled over both constructs and 100, 10 and 1 nM
[9] = target: PD-1 on in vitro activated primary human T cells (human) (UniProt Q15116); test: flow cytometry, detection antibody on Ki-67+ CD4+ activated T cells after 4 d with 1 nM IL-15Rα-Fc precomplexed with IL-15
[10] = target: PD-1 on in vitro activated primary human T cells (human) (UniProt Q15116); test: flow cytometry, detection antibody on Ki-67+ CD8+ activated T cells after 4 d with 1 nM IL-15 alone
[11] = target: PD-1 on in vitro activated primary human T cells (human) (UniProt Q15116); test: flow cytometry, detection antibody on Ki-67+ CD8+ activated T cells, media only
[12] = target: PD-1 on in vitro activated primary human T cells (human) (UniProt Q15116); test: flow cytometry, detection antibody on Ki-67+ CD4+ activated T cells after 4 d with 1 nM RV1 precomplexed with IL-15
[13] = target: PD-1 on in vitro activated primary human T cells (human) (UniProt Q15116); test: flow cytometry, detection antibody on Ki-67+ CD8+ activated T cells after 4 d with 10 nM RV1 precomplexed with IL-15
[14] = target: PD-1 on in vitro activated primary human T cells (human) (UniProt Q15116); test: flow cytometry, detection antibody on Ki-67+ CD8+ activated T cells after 4 d with 1 nM RV2 precomplexed with IL-15
[15] = target: PD-1 on in vitro activated primary human T cells (human) (UniProt Q15116); test: flow cytometry, detection antibody on Ki-67+ CD4+ activated T cells after 4 d with 100 nM IL-15Rα-Fc precomplexed with IL-15
[16] = target: PD-1 on in vitro activated primary human T cells (human) (UniProt Q15116); test: flow cytometry, detection antibody on Ki-67+ CD4+ activated T cells after 4 d with 1 nM RV2 precomplexed with IL-15
[17] = target: PD-1 on in vitro activated primary human T cells (human) (UniProt Q15116); test: flow cytometry, detection antibody on Ki-67+ CD8+ activated T cells after 4 d with 100 nM IL-15Rα-Fc precomplexed with IL-15
[18] = target: PD-1 on in vitro activated primary human T cells (human) (UniProt Q15116); test: flow cytometry, detection antibody on Ki-67+ CD4+ activated T cells, media only
[19] = target: PD-1 on in vitro activated primary human T cells (human) (UniProt Q15116); test: flow cytometry, detection antibody on Ki-67+ CD4+ activated T cells after 4 d with 100 nM IL-15 alone
[20] = target: PD-1 on in vitro activated primary human T cells (human) (UniProt Q15116); test: flow cytometry, detection antibody on Ki-67+ CD4+ activated T cells after 4 d with 10 nM RV2 precomplexed with IL-15
[21] = target: PD-1 on in vitro activated primary human T cells (human) (UniProt Q15116); test: flow cytometry, detection antibody on Ki-67+ CD8+ activated T cells after 4 d with 100 nM IL-15 alone
[22] = target: PD-1 on in vitro activated primary human T cells (human) (UniProt Q15116); test: flow cytometry, detection antibody on Ki-67+ CD4+ activated T cells after 4 d with 10 nM IL-15Rα-Fc precomplexed with IL-15
[23] = target: PD-1 on in vitro activated primary human T cells (human) (UniProt Q15116); test: flow cytometry, detection antibody on Ki-67+ CD8+ activated T cells after 4 d with 1 nM IL-15Rα-Fc precomplexed with IL-15
[24] = target: PD-1 on in vitro activated primary human T cells (human) (UniProt Q15116); test: flow cytometry, detection antibody on Ki-67+ CD8+ activated T cells after 4 d with 100 nM RV1 precomplexed with IL-15
[25] = target: PD-1 on in vitro activated primary human T cells (human) (UniProt Q15116); test: flow cytometry, detection antibody on Ki-67+ CD4+ activated T cells after 4 d with 100 nM RV2 precomplexed with IL-15
[26] = target: PD-1 on in vitro activated primary human T cells (human) (UniProt Q15116); test: flow cytometry, detection antibody on Ki-67+ CD8+ activated T cells after 4 d with 1 nM RV1 precomplexed with IL-15
[27] = target: PD-1 on in vitro activated primary human T cells (human) (UniProt Q15116); test: flow cytometry, detection antibody on Ki-67+ CD8+ activated T cells; average pooled over non-PD-1-binding test samples and concentrations
[28] = target: PD-1 on in vitro activated primary human T cells (human) (UniProt Q15116); test: flow cytometry, residual staining by detection antibody on Ki-67+ CD8+ activated T cells in the presence of competitors RV29 and RV32 (IL-15 precomplexed); average pooled over both constructs and 100, 10 and 1 nM
[29] = target: PD-1 on in vitro activated primary human T cells (human) (UniProt Q15116); test: flow cytometry, detection antibody on Ki-67+ CD4+ activated T cells after 4 d with 100 nM RV1 precomplexed with IL-15
[30] = target: PD-1 on in vitro activated primary human T cells (human) (UniProt Q15116); test: flow cytometry, detection antibody on Ki-67+ CD4+ activated T cells after 4 d with 10 nM IL-15 alone

PD-1 on in vitro activated primary human T cells (human), sequence (Q15116 25-288): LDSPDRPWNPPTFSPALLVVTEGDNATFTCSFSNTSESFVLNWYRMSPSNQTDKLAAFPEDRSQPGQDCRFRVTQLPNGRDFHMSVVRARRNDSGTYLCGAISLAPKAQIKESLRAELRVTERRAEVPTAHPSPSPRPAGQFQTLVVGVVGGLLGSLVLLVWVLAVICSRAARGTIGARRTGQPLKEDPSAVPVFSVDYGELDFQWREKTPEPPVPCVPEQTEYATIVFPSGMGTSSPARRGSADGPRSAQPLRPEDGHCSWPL

For “PD-1 detection antibody (clone EH12.21H7)”, the MFI of PD-1 staining [1] was 4620 MFI, the MFI of PD-1 staining [2] was 2020 MFI and the MFI of PD-1 staining [3] was 4870 MFI. For the same substance, the MFI of PD-1 staining [4] was 2120 MFI, the MFI of PD-1 staining [5] was 3190 MFI and the MFI of PD-1 staining (average) [6] was 4830 MFI. For the same substance, the MFI of PD-1 staining [7] was 2820 MFI, the MFI of PD-1 staining (average) [8] was 3090 MFI and the MFI of PD-1 staining [9] was 4280 MFI. It also gave an MFI of PD-1 staining [10] of 2050 MFI, an MFI of PD-1 staining [11] of 2250 MFI and an MFI of PD-1 staining [12] of 4100 MFI. For the same substance, the MFI of PD-1 staining [13] was 1890 MFI, the MFI of PD-1 staining [14] was 1920 MFI and the MFI of PD-1 staining [15] was 4380 MFI. The MFI of PD-1 staining [16] was 4200 MFI, the MFI of PD-1 staining [17] was 2110 MFI and the MFI of PD-1 staining [18] was 4020 MFI. For the same substance, the MFI of PD-1 staining [19] was 6550 MFI, the MFI of PD-1 staining [20] was 5070 MFI and the MFI of PD-1 staining [21] was 3220 MFI. For the same substance, the MFI of PD-1 staining [22] was 4480 MFI, the MFI of PD-1 staining [23] was 1690 MFI and the MFI of PD-1 staining [24] was 2370 MFI. It also gave an MFI of PD-1 staining [25] of 5840 MFI, an MFI of PD-1 staining [26] of 1870 MFI and an MFI of PD-1 staining (average) [27] of 2190 MFI. For the same substance, the MFI of PD-1 staining (average) [28] was 1460 MFI, the MFI of PD-1 staining [29] was 4830 MFI and the MFI of PD-1 staining [30] was 6440 MFI.
